The chains are these.
B1: Hairpin Ribozyme (parent)
chain: GUCCUCUUUCACGUGCGCGUGAAAGAGAGAAGUGAACCAGAGAAACACACGUUGUGGUAUAUUACCUGGUA

In this data set the parent is B1. Kind of data set: self-cleavage, relative activity (ratio to wild type); higher = more cleavage; co-transcriptional.
Turning to U20G G68U, the self-cleavage is 0.297.

A22U G56A: the self-cleavage came to 0.147. The result for G21C G51A reads 0.914; that for A22G C38A, 0.147. Turning to G21A G42C, the self-cleavage was 0.281.

Regarding G21A G42U, the self-cleavage was 0.249. Turning to G21A G42A, the self-cleavage stood at 0.218. On to A22U U70C, for which the self-cleavage turned out to be 0.876. The result for A22C G25A reads 0.247; that for A22G C37U, 0.646; that for A22G C37A, 0.312. With U20G G51A, the self-cleavage is 0.909.

Regarding U20G G51U, the self-cleavage was determined as 0.916. To G21U A64U belongs 0.113; to G21U A64G, 0.573.

Regarding A22G U55C, the self-cleavage was 0.294. To A22G A26C belongs 0.649; to A22G U63G, 0.171. Consider A22G U63A, for which the self-cleavage worked out at 0.22. For the variant G21C A71G, the self-cleavage was 0.818.

For G21U A43G, the self-cleavage is 0.282. As to G21U A43U, the self-cleavage amounted to 0.129. To A22C U53G belongs 0.822; to A22C U53A, 0.81. To A22C U53C belongs 1.03; to A22G G42U, 0.288; to A22G G42C, 0.365.

On to U20G U52G, for which the self-cleavage worked out at 0.772.

G21A G29C: the self-cleavage was 0.168. The result for A22C U60A reads 0.664. The result for A22C U60G reads 0.484.

With A22C U60C, the self-cleavage was 1.16.

For the variant G21A G32A, the self-cleavage was determined as 0.193. With G21A G32U, the self-cleavage turned out to be 0.0748. Take G21A G69A: the self-cleavage is 0.382. The result for A22C C46A reads 0.183; that for A22G A39G, 0.298; that for G21U U55C, 0.288. The result for G21U U55A reads 0.227; that for A22G C48U, 0.149.

For the variant G21C A61C, the self-cleavage stood at 0.151. As to A22C C50U, the self-cleavage stood at 0.405. To A22G G54U belongs 0.423; to A22U G69A, 0.42. For A22U G57U, the self-cleavage came out at 0.366. G21U U62A: the self-cleavage was found to be 0.151. The result for A22G A61C reads 0.337; that for A22G A61U, 0.159. To U20G G54A belongs 0.417. With U20G G54U, the self-cleavage came to 0.595. Regarding A22G A41C, the self-cleavage was 1.01. Take A22G A41U: the self-cleavage is 0.921. With A22C C65U, the self-cleavage was determined as 0.303. For A22C C65G, the self-cleavage was 0.116.

With A22C C65A, the self-cleavage amounted to 0.64.

As for A22C U70C, the self-cleavage was 0.892. The result for A22C U70A reads 0.862. To G21C G32C belongs 0.175; to A22U C38G, 0.184; to G21U U60C, 1.08. In the case of G21U G25A, the self-cleavage was determined as 0.252. To G21C C48G belongs 0.184; to G21C C48U, 0.098. To G21A A43U belongs 0.123; to G21A A43C, 0.153. The result for G21A A26U reads 0.525; that for G21A A26G, 0.658.

A23C A30C: the self-cleavage turned out to be 0.246. Take G21A G68A: the self-cleavage stood at 0.151. Regarding A22U U67G, the self-cleavage was determined as 0.295. The result for A22C C48A reads 0.291; that for A22C C48G, 0.138.

As for A22C C48U, the self-cleavage is 0.235. The result for A22U U63A reads 0.155.

Consider G21C G34U, for which the self-cleavage turned out to be 1.12.

For G21C G34C, the self-cleavage was found to be 0.992. Regarding G21U A24C, the self-cleavage worked out at 0.481. To A22U U33C belongs 0.235. The result for A22G A24U reads 1.08; that for A22G A24G, 0.808.

G21C G68C: the self-cleavage turned out to be 0.155. For the variant G21C G68A, the self-cleavage came to 0.321. To A22G G25A belongs 0.623; to A22G G25U, 0.595; to G21A A30C, 0.128. The result for A22C G27A reads 0.272.

Regarding G21A A31U, the self-cleavage is 0.0982. The result for G21C A45G reads 0.192; that for G21C A45U, 0.154. To G21C A45C belongs 0.276. Consider G21A C65A, for which the self-cleavage worked out at 0.861. With G21A C65U, the self-cleavage was found to be 0.147. In the case of G21A C65G, the self-cleavage was 0.158.

For the variant G21U U53A, the self-cleavage was determined as 0.836. To A22U U53G belongs 0.817. To G21U A39G belongs 0.293; to G21U A39C, 0.448. To A22C A44U belongs 0.221; to G21U C38A, 0.184. On to G21C U53C, for which the self-cleavage worked out at 0.953.

In the case of G21C A31G, the self-cleavage was 0.275.

Regarding G21U A49G, the self-cleavage amounted to 0.408. Take G21C U33A: the self-cleavage came to 0.133.

As for G21C U62G, the self-cleavage is 0.216. For G21A A36C, the self-cleavage came to 0.605. As to G21A A36U, the self-cleavage was found to be 0.503.

Consider G21U G29C, for which the self-cleavage was 0.224. With A22C A26C, the self-cleavage was 0.528. For the variant G21U C50G, the self-cleavage was 0.328. For the variant G21U C50U, the self-cleavage was 0.376. For A22C G29C, the self-cleavage was 0.0774.

For the variant G21U U70C, the self-cleavage worked out at 0.687. To A23C A35U belongs 0.559. To A23C A35C belongs 0.797; to A22C U67A, 0.195; to A22C U67C, 0.196.

As to G21A A45U, the self-cleavage worked out at 0.286. The result for G21A G34A reads 0.968; that for A22C U62A, 0.128; that for A22C U62G, 0.155. To A22C G54U belongs 0.514.

As to A22C G54A, the self-cleavage was found to be 0.587. Consider G21U U58C, for which the self-cleavage came to 0.84. The result for G21U U58G reads 0.585; that for G21U G34A, 1.01; that for G21A A28G, 0.979. To G21A A28C belongs 0.472. Consider G21C A30G, for which the self-cleavage amounted to 0.22. Regarding G21C C38A, the self-cleavage turned out to be 0.18. The result for G21U A30G reads 0.149; that for G21U A30U, 0.142. Take G21U G27U: the self-cleavage stood at 0.253. With G21U G68U, the self-cleavage turned out to be 0.32. G21U G68A: the self-cleavage came out at 0.237.

Regarding G21C C65A, the self-cleavage turned out to be 0.777. To A22C A49U belongs 0.204; to G21C A41C, 0.957. The result for G21C A41U reads 1.16; that for G21A U60C, 0.956; that for A22G C65G, 0.249.

As to G21C U58A, the self-cleavage worked out at 0.577. The result for G21C U58C reads 0.77; that for U20G U67A, 0.241. As for U20G U67C, the self-cleavage was determined as 0.186. The result for A22C U55C reads 0.247; that for A22C U55G, 0.173; that for A22U A31C, 0.0317. The result for A22U U58A reads 0.589. The result for A22U U58G reads 0.769; that for G21A U53A, 0.824; that for G21A U53C, 0.739. In the case of A22C A59U, the self-cleavage came out at 0.104.

Turning to A22C A59G, the self-cleavage was 0.25. To A22C A59C belongs 0.0825; to G21U C37A, 0.267.

Regarding A23C A41C, the self-cleavage worked out at 0.948. As for A22G U70G, the self-cleavage amounted to 0.658. For the variant A22G U70A, the self-cleavage is 0.81. To A22C G40C belongs 0.123.

As for A22U C37G, the self-cleavage is 0.339. To G21A A59C belongs 0.13; to G21A A59U, 0.142. In the case of A23C A28U, the self-cleavage was 0.501. The result for A22U A43U reads 0.136; that for A22U A43C, 0.178. The result for A22G G56U reads 0.0693.

For A22G G56A, the self-cleavage stood at 0.185.
